Source: patent publication US20120321619A1 (Bayer, published 2012)

Legend:
[1] = molecular target: T1, human C4.4a natively expressed on tumor cell lines (human, UniProt O95274 31-326); assay: FACS titration on BxPC3 cells (native C4.4a), IgG1 format, phycoerythrin-labelled goat anti-human IgG detection
T1 construct: whole, on cells; also called NCI H292; NCI H322
T1 sequence (looked up): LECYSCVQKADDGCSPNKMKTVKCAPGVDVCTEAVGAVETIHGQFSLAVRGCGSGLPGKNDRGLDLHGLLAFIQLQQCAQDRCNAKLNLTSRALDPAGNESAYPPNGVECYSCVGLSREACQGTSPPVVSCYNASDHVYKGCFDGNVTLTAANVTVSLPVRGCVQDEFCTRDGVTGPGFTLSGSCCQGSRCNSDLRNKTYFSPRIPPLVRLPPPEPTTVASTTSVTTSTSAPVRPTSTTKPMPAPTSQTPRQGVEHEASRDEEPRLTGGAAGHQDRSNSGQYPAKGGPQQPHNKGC
Experimental: (§1) FACS titration was performed in a 96 well microtiter plate, in which serial dilutions of the primary antibody in a volume of 50 W of FACS buffer (3% FCS, in PBS) were mixed with 50 μl of a cell suspension consisting of 2×10^5 cells/ml which had been detached with Cell Dissociation Solution (1×) Non-enzymatic (Sigma), and resuspended in FACS buffer. Incubation was performed at 4° C. for 1 hour with agitation. Cells were pelleted, washed with FACS buffer and resuspended in 100 μl/well of Phycoerythrin labeled goat anti human IgG (Dianova) solution in FACS buffer. Incubation and washing was performed as before. Analysis of cell-bound antibodies was done at the respective detection wavelength using the FACS Array device. EC₅₀ values were determined from fluorescence medians of duplicates using Swift 8.0 software.

[2] = molecular target: T1, human C4.4a natively expressed on tumor …; assay: FACS titration on NCI H322 cells (native C4.4a), IgG1 format, phycoerythrin-labelled goat anti-human IgG detection
Experimental: as §1

[3] = molecular target: T2, recombinant soluble murine C4.4a (mouse, UniProt Q91YK8 33-343, limits assumed); assay: SPR (Biacore T100), IgG1 captured by anti-human Fc, soluble C4.4a injected, 1:1 fit
T2 construct: also called mouse C4.4a; mC4.4a
T2 sequence (looked up): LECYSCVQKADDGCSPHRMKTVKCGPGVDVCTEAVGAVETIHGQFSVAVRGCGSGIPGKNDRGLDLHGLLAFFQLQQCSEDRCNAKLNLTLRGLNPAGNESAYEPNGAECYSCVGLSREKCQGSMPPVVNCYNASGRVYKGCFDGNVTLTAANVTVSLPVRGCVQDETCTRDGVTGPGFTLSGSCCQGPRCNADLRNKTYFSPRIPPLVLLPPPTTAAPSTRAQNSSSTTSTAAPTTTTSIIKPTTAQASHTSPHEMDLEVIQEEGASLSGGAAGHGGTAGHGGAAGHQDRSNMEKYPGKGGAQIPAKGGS
Experimental: (§2) Binding affinities of anti C4.4 antibodies were determined by surface plasmon resonance analysis on a Biacore T100 instrument (GE Healthcare Biacore, Inc.). Antibodies were immobilized onto a CM5 sensor chip through an indirect capturing reagent, anti-human IgG Fc. Reagents from the “Human Antibody Capture Kit” (BR-1008-39, GE Healthcare Biacore, Inc.) were used as described by the manufacturer. Approximately 5000 RU monoclonal mouse anti-human IgG (Fc) antibody were immobilized per cell. Anti C4.4 antibodies were injected at a concentration of 5 μg/ml at 10 μl/min for 10 sec to reach a capturing level of approximately 200 to 600 RU. Various concentrations (400 nM, 200 nM, 100 nM, 50 nM, 25 nM, 12.5 nM, 6.25 nM, and 3.12 nM) in HEPES-EP buffer (GE Healthcare Biacore, Inc.) of human or murine C4.4a were injected over immobilized anti C4.4a antibodies at a flow rate of 60 μl/min for 3 minutes and the dissociation was allowed for 10 minutes. Sensograms were generated after in-line reference cell correction followed by buffer sample subtraction. The dissociation equilibrium constant (KD) was calculated based on the ratio of association (kₒₙ) and dissociation rated (koff) constants, obtained by fitting sensograms with a first order 1:1 binding model using Biavaluation Software (version 4.0).

[4] = molecular target: T3, recombinant soluble human C4.4a (human, UniProt O95274 31-308); assay: as above
T3 construct: recombinant, soluble, purified protein; also called hC4.4a; full length C4.4a
T3 sequence: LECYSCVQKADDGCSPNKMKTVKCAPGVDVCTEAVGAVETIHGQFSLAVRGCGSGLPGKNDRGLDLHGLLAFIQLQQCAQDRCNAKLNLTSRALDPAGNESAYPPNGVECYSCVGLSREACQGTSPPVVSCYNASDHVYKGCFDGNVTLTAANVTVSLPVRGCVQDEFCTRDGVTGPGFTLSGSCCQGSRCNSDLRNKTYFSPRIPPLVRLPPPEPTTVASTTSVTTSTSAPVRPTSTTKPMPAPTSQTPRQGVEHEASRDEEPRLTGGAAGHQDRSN
Experimental: as §2

[5] = molecular target: T1, human C4.4a natively expressed on tumor …; assay: FACS titration on H1975/BCRP cells (native C4.4a), IgG1 format, phycoerythrin-labelled goat anti-human IgG detection
Experimental: as §1

[6] = molecular target: T2, recombinant soluble murine C4.4a; assay: ELISA, IgG1 on coated recombinant murine C4.4a
Experimental: FIG. 2 depicts binding curves of anti-C4.4 antibody M31-B01 and M20 D02 S-A on recombinant human C4.4a (A) and murine C4.4a (B) respectively. Briefly, 96-well MTP were coated for 16 h at 4° C. with recombinant human or mouse C4.4a (100 ng/well plates were washed 3 times with PBS/0.05% Tween 20 (=buffer B) treated with blocking reagent (PBS+2% BSA), and washed again 3 times with buffer B. After that anti C4.4a antibodies of the invention were added in concentrations of 0.39 ng to 400 ng/per well and incubated for one hour at 20° C. After washing 3 times with buffer B, 20 ng of Protein A were added in 100 μl buffer B to each well. Color reaction was developed by addition of 50 W 3,3′,5,5′-Tetramethylbenzidine (TMB) (Sigma). Data for EC₅₀ determination were recorded after 18 min by measuring extinction […] a Tecan infinite plate reader. EC₅₀ values for M31-B01 were 0.24 and 0.29 nM on human and murine C4.4a, respectively. And for M20-D02 S-A EC₅₀ values were 0.3 and 0.38 nM on human and murine C4.4a, respectively. This indicates high affinity binding of anti C4.4a antibodies of the invention to both human and murine soluble recombinant C4.4a.

Binder | EC50 [1] | EC50 [2] | Kd [3] | Kd [4] | EC50 [5] | EC50 [6]
M31-B01 (antibody, human IgG1, V domains shown, tested as human IgG1) VH: EVQLLESGGGLVQPGGSLRLSCAASGFTFSNAWMSWVRQAPGKGLEWVSYISSSGSTIYYADSVKGRFTISRDNSKNTLYLQMNSLRAEDTAVYYCAREGLWAFDYWGQGTLVTVTS VL: QSVLTQPPSASGTPGQRVTISCTGSSSNIGAGYVVHWYQQLPGTAPKLLIYDNNKRPSGVPDRFSGSKSGTSASLAISGLRSEDEADYYCAAWDDRLNGPVFGGGTKLTVLG | 0.3 nM | 0.3 nM | 130 nM | 70 nM | 0.4 nM | 0.29 nM
M20-D02 S-A (antibody, human IgG1, V domains shown, tested as human IgG1) VH: EVQLLESGGGLVQPGGSLRLSCAASGFTFSDYQMTWIRQTPGKGLEWVSGVSWNGARTHYADSVKGRFTISRDNSKNTLYLQMNSLRAEDTAVYYCAKGDYLVYSAYYFDSWGQGTLVTVTS VL: not shown | 1 nM | 1.2 nM | 180 nM | 220 nM | 1.3 nM | 0.38 nM
